# From PMC3838125, “Crystal Structure of Venezuelan Hemorrhagic Fever Virus Fusion Glycoprotein Reveals a Class 1 Postfusion Architecture with Extensive Glycosylation” (Journal of Virology, 2013)
# B1: Guanarito virus (GTOV) fusion glycoprotein GP2, residues 292 to 418 (domain or fragment)
# chain: DSEFCDMLRLFDFNKNAIEKLNNQTKTAVNMLTHSINSLISDNLLMRNKLKEILKVPYCNYTRFWYINHTKSGEHSLPRCWLVSNGSYLNESDFRNEWILESDHLIAEMLSKEYQDRQGKTPLTLVD
# notes: also called GTOV GP2
# Target: the molecule itself
# Test: crystal structure
protein,measurement,value
B1,stoichiometry N,3
